Laboratory results: US20170088634A1, “TREATMENT OF NEUROTRAUMA USING ANTIBODIES TO LYSOPHOSPHATIDIC ACID” (priority 2012, published 2017)
Where two headings read alike, the source gives them in different places. Marks after values point to notes of the source that are not given here. Blank lines part the entries; values can stand above or below the molecule they belong to.

How the values were obtained:
hNS/PC neurospheres [1] = test: Neuronal differentiation of plated neurospheres (neuron-forming neurospheres); assay type: cell-based, human
Protocol: (§1) Neurospheres were used to model the role of LPA in neuronal differentiation as described in commonly-owned U.S. patent application publication no. US20110076269 and U.S. Pat. No. 8,604,172. […] LPA also interferes with an additional differentiation step, namely, the differentiation of NSC toward mature cells.
Using the same conditions used in Example 2, above, for LPA treatment alone, plated neurospheres were treated with 10 μM LPA alone, or with anti-LPA antibody B3 or B7 (1 mg/ml) alone, or with 10 μM LPA in combination with 1 mg/ml of antibody B3 or B7. Similarly, cells were treated with 10 μM LPA alone, humanized anti-LPA antibody LT3015 alone (1 mg/ml), or with 10 μM LPA in combination with 1 mg/ml LT3015. The percent of neuron-forming neurospheres was quantitated as in Example 2 (beta-tubulin staining and quantification of neuron-forming spheres, as described in Dottori, et al (2008)). […] Neurosphere samples treated with B3 antibody alone had neuron-forming neurospheres equivalent to control (100%). […] The antibody B7, under similar conditions, had little to no effect in this experiment (37.00±5.31% of control).
Using the conditions described in the Example above, […] were plated onto laminin for neuronal differentiation in NBM medium (3 days), with or without LPA (10 μM), with or without antibody to LPA at 1 mg/ml (B3, B7, or the humanized antibody LT3015, tested singly with or without LPA).

hNS/PC neurospheres [2] = test: Neurosphere formation; assay type: cell-based, human; settings: LPA 10 uM
Excerpt: as §1
Anti-LPA antibodies have been found by the inventors to block LPA inhibition of neurosphere formation, as described in commonly-owned U.S. patent application publication no. US20110076269 and U.S. Pat. No. 8,604,172.

adult mouse NSC = test: Neuronal differentiation of adult mouse NSC; assay type: cell-based
Excerpt: However, and similarly to data obtained in human NSC, LPA inhibited the neuronal differentiation of adult mouse NSC by maintaining them as NSC when plated in conditions normally inducing neuronal differentiation. […] These effects were independent of apoptosis or proliferation.

[3] = Competition ELISA, competitor lipid 14:0 LPA; assay type: binding; settings: maximum inhibition
Excerpt: (§2) Although polyclonal antibodies against naturally-occurring LPA have been reported in the literature (Chen, et al., Bioorg Med Chem Lett. 2000 Aug. 7; 10(15):1691-3), monoclonal antibodies to LPA had not been described until Sabbadini, et al., U.S. patent application publication no. 20080145360, and U.S. Pat. No. 8,158,124, both of which are commonly owned herewith. The former publication describes the production and characterization of a series of murine monoclonal antibodies against LPA and the latter describes, among other things, a humanized monoclonal antibody against LPA. IC50: Half maximum inhibition concentration; MI: Maximum inhibition (% of binding in the absence of inhibitor); ---: not estimated because of weak inhibition. A high inhibition result indicates recognition of the competitor lipid by the antibody.

[4] = Competition ELISA, competitor lipid 16:0 LPA; assay type: binding; settings: maximum inhibition
Excerpt: as §2

[5] = Competition ELISA, competitor lipid 18:1 LPA; assay type: binding; settings: maximum inhibition
Excerpt: as §2

[6] = Competition ELISA, competitor lipid 18:2 LPA; assay type: binding; settings: maximum inhibition
Excerpt: as §2

[7] = Competition ELISA, competitor lipid 20:4 LPA; assay type: binding; settings: maximum inhibition
Excerpt: as §2

[8] = Competition ELISA specificity, competitor lipid LPC; assay type: binding; settings: n = 3
Protocol: (§3) The specificity of the anti-LPA mAbs was assessed for their binding to LPA-related biolipids such as distearoyl-phosphatidic acid, lysophosphatidylcholine, SIP, ceramide, and ceramide-1-phosphate.

[9] = Competition ELISA specificity, competitor lipid S1P; assay type: binding; settings: n = 3
[10] = Competition ELISA specificity, competitor lipid C1P; assay type: binding; settings: n = 3
[11] = Competition ELISA specificity, competitor lipid Cer; assay type: binding; settings: n = 3
[12] = Competition ELISA specificity, competitor lipid DSPA (distearoyl PA); assay type: binding; settings: n = 3
Protocol: as §3

[13] = Surface plasmon resonance (BiaCore) and direct binding ELISA of LT3000; settings: Table 12
Excerpt: (§4) The murine antibody is a full-length IgG1 k isotype antibody composed of two identical light chains and two identical heavy chains with a total molecular weight of 155.5 kDa.

[14] = Specificity of LT3000 against other lipids and proteins; assay type: binding; settings: over 100 different bioactive lipids and proteins, including over 20 bioactive lipids
Excerpt: as §4

Apparent Tm of antibody = assay type: physicochemical; settings: pH7.4
Solubility of antibody = assay type: physicochemical; settings: 6.6 mM phosphate, 154 mM sodium chloride, pH 7.4
SKOV3 cell migration = test: Migration assay, SKOV3 cells triggered by LPA; assay type: cell-based; settings: Lpathomab, 1 mM 18:1 LPA, SKOV3, n = 3
SKOV3 cell invasion = test: Invasion assay, SKOV3 cells triggered by LPA; assay type: cell-based; parameters: dose or concentration left out as unconfirmed; settings: Lpathomab 14:0 LPA, SKOV3, n = 2
human IL-8 = test: LPA-induced IL-8 release in SKOV3 conditioned media; assay type: cell-based; parameters: dose or concentration left out as unconfirmed; settings: Lpathomab 18:1 LPA, SKOV3, n = 3
human IL-6 = test: LPA-induced IL-6 release in SKOV3 conditioned media; assay type: cell-based; settings: Lpathomab 300-600 mg/mL, 1 mM 18:1 LPA, SKOV3, n = 3
SKOV3 cells = test: Apoptosis: Taxol induced caspase-3 activation in SKOV3 cells, LPA protection; assay type: cell-based; settings: Lpathomab, 1 mM Taxol, 1 mM 18:1 LPA, SKOV3, n = 1
[15] = Binding affinity of humanized, chimeric and murine anti-LPA antibodies
[16] = Specificity / cross-reactivity profile; assay type: binding
interleukin-8 (IL-8) = test: IL-8 release from ovarian cancer cells; assay type: cell-based
Excerpt: Five humanized variants were further assessed in in vitro cell assays. LPA is important in eliciting release of interleukin-8 (IL-8) from cancer cells.

[17] = cited from earlier work
[18] = cited from earlier work; remark: listed apart in the source
[19] = cited from earlier work; remark: listed apart in the source
[20] = cited from earlier work; remark: listed apart in the source
[21] = cited from earlier work; remark: listed apart in the source

Molecule: lysophosphatidic acid [LPA]
decrease in neuron-forming spheres (hNS/PC neurospheres [1]; 10 uM LPA): ~80% | neuron-forming spheres, LPA alone (Example 4) (hNS/PC neurospheres [1]; 10 μM LPA, 3 days): approximately 26 % of control | neurosphere formation, LPA (hNS/PC neurospheres [2]): inhibited | neurosphere formation or growth of mouse NSC (adult mouse NSC): did not modify | βIII-tubulin expression (differentiated neurons) (adult mouse NSC; LPA (10 NM), three days, untreated 57.12±18.42%): 26.25±2.08 % of total cells | nestin positive (undifferentiated NSCs) (adult mouse NSC; LPA (10 NM), three days, untreated 58.01±6.20): 87.55±3.20 % of total cells

Kd [13]: 0.001 to 0.05 nM | binding affinity for other bioactive lipids and proteins (specificity) [14]: no binding affinity | binding affinity for LPA (in words) [15]: low picomolar range
B1: B7: murine anti-LPA monoclonal antibody, full-length IgG1k; VH SEQ ID NO: 3, VL SEQ ID NO: 4 (antibody, V domains shown)
VH: QVQLQQSGAELVRPGTSVKVSCKASGYGFINYLIEWIKQRPGQGLEWIGLINPGSDYTNYNENFKGKATLTADKSSSTAYMHLSSLTSEDSAVYFCARRFGYYGSGNYFDYWGQGTTLTVSS
VL: DVVMTQTPLSLPVSLGDQASISCTSGQSLVHINGNTYLHWYLQKPGQSPKLLIYKVSNLFSGVPDRFSGSGSGTDFTLKISRVEAEDLGVYFCSQSTHFPFTFGTGTKLEIK
MI, competitor lipid 14:0 LPA [3]: 61.3% | MI, competitor lipid 16:0 LPA [4]: 62.9% | MI, competitor lipid 18:1 LPA [5]: 100% | MI, competitor lipid 18:2 LPA [6]: 100% | MI, competitor lipid 20:4 LPA [7]: 67% | MI, competitor lipid LPC [8]: 0% | MI, competitor lipid S1P [9]: 2.7% | MI, competitor lipid C1P [10]: 1.0% | MI, competitor lipid Cer [11]: 1% | MI, competitor lipid DSPA [12]: 0% | Apparent Tm (Apparent Tm of antibody): 67 °C at pH7.4 | Solubility (Solubility of antibody): >40 mg/mL in 6.6 mM phosphate, | Migration % Inhibition (over LPA taken as 100) (SKOV3 cell migration): 35* % | Invasion % Inhibition (over LPA taken as 100) (SKOV3 cell invasion): 95* % | IL-8 Release % Inhibition (over LPA taken as 100) (human IL-8): 20% | IL-6 Release % Inhibition (over LPA taken as 100) (human IL-6): 23* % | Apoptosis % Induction (over LPA + TAXOL taken as 100) (SKOV3 cells): 79% | cross-reactivity to LPC, PA, 14:0 and 18:1 LPA, cPA, PC [16]: no cross-reactivity | IL-8 release from ovarian cancer cells (interleukin-8 (IL-8)): reduced IL-8 release | neuron-forming neurospheres, LPA plus antibody (pool of data) (hNS/PC neurospheres [1]; 10 μM LPA in combination with 1 mg/ml antibody): 37.00±5.31 % of control | number of neurons in neurospheres (comparison between antibodies) (hNS/PC neurospheres [1]; 10 μM LPA plus antibody 1 mg/ml): lesser number of neurons | neuron-forming neurospheres, LPA plus antibody (Example 4) (hNS/PC neurospheres [1]; 10 μM LPA, antibody 1 mg/ml, 3 days on laminin in NBM medium): 50 % of control | IC50 ([17]; competition ELISA, half maximum inhibition concentration, read-out: 14:0 LPA IC50): 105 nM | 14:0 LPA MI ([17]; maximum inhibition (% of binding in the absence of inhibitor)): 61.3% | IC50 ([18]; competition ELISA, read-out: 16:0 LPA IC50): 483 nM | 16:0 LPA MI ([18]; maximum inhibition): 62.9% | IC50 ([19]; competition ELISA, read-out: 18:1 LPA IC50): > 2000 nM | 18:1 LPA MI ([19]; maximum inhibition): 100% | IC50 ([20]; competition ELISA, read-out: 18:2 LPA IC50): 1490 nM | 18:2 LPA MI ([20]; maximum inhibition): 100% | IC50 ([21]; competition ELISA, read-out: 20:4 LPA IC50): 161 nM | 20:4 LPA MI ([21]; maximum inhibition): 67%
